Measurements from patent publication US20190233498A1 (H LUNDBECK A S, published 2019).

T1: human PACAP38 (human, not fully specified; C-terminal lysine is amidated; N-terminal or C-terminal biotin in the HTRF and PC-12 cell binding assays)
T1 construct: synthetic peptide, bought; also called huPACAP (1-38)
T1 peptide: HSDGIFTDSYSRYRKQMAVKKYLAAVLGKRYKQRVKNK

T2: human PACAP27 (human, C-terminal leucine is amidated; 125I-labelled in Example 10)
T2 peptide: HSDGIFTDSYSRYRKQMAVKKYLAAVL

T3: human VIP (human)
T3 construct: also called Vasoactive Intestinal Peptide
T3 peptide: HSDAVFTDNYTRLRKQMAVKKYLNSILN


Tests used:
[1] = target: T1, human PACAP38; test: HTRF binding, biotin-PACAP38
Description: In parallel, 10 μl of an antibody dilution series (highest final concentration of 100 nM) were incubated with 10 μl of N-terminal or C-terminal biotinylated PACAP38 (35 nM final) alone, or in combination with either PACAP27 (350 nM final) or VIP (350 nM final), i.e., 10× PACAP27 or 10×VIP, respectively, in a HTRF plate. 20 μl of Eu³⁺ cryptate labeled anti-hu Fc donor and 20 μl of d2-labeled streptavidin acceptor were added to each well and incubated for 1 hour at room temperature. Fluorescence was measured at 620 and 665 nm with a delay of 300 μsec.
EC₅₀ values, i.e. the concentration of an antibody that yields a response halfway between the baseline and the maximum value within a specified time period, were computed for each antibody based upon their binding curves and are shown in Table 1 below. […] A humanized form of antibody Ab1 was produced and is identified by an appended “.H”, i.e., Ab1.H, and it also bound PACAP38 with high affinity.

[2] = target: T1, human PACAP38; test: inhibition of 100 nM biotin-PACAP38 binding to PC-12 cells, TRF
Description: To identify antibodies that block PACAP38 binding to PAC1-R-expressing cells, adherent PC-12 cells (ATCC, Manassas, Va.) expressing PAC1-R were used in a Europium-based PAC1-R expressing cells binding assay.
Antibody solutions were incubated with N-terminal biotinylated PACAP38 at 10× the final concentration (100 nM or 30 nM) for 1 hr, then added to PC-12 cells that were plated 24 hrs. prior in black clear bottom 96 well plates (COSTAR™, Corning Incorporated, Corning, N.Y.) and further incubated for 1 hr at room temperature. After three washes, the cells were incubated with 20 μl Europium-labeled streptavidin (PerkinElmer, Waltham, Mass.) for 1 hr at room temperature. Cells were washed three times, then 20 μl DELFIA® Enhancement solution (PerkinElmer, Waltham, Mass.) was added to each well and incubated for 15 minutes with gentle shaking. Plates were read (Time Resolved Fluorescence (“TRF”)) on SPECTRAMAX® (Molecular Devices, Sunnyvale, Calif.) plate reader.
FIGS. 14A-14BB are representative of the inhibition curves obtained by this method (results are shown for Ab1, Ab2, Ab3, Ab4, Ab5, Ab6, Ab7, Ab8, Ab9, Ab10, Ab11, Ab12, Ab13, Ab14, Ab15, Ab16, Ab17, Ab18, Ab19, Ab1.H, Ab10.H, Ab22, Ab23, Ab3.H, Ab4.H, Ab5.H, Ab9.H, and Ab12.H, respectively) wherein the PAC1-R expressing cells were PC-12 cells.

[3] = target: T1, human PACAP38; test: cell-based or functional assay
[4] = target: T1, human PACAP38; test: cell-based or functional assay
[5] = target: T2, human PACAP27; test: cell-based or functional assay
[6] = target: T1, human PACAP38; test: SPR, Ab immobilised
Description: (§1) Binding affinities of monoclonal antibodies for human PACAP were estimated using SPR on the PROTEON™ XPR36 (Bio-Rad, Hercules, Calif.). Antibody was immobilized to the surface of general amine coupling (“GLC” or “GLM”) Chips (Bio-Rad, Hercules, Calif.). A dilution series of human PACAP38 (SEQ ID NO: 1241) prepared in 1×PBST Buffer (4.3 mM Na Phosphate, 1.4 mM K Phosphate, 135 mM NaCl, 2.7 mM KCl 0.05% Polysorbate-20) purchased from Teknova (Cat# P1192, Teknova, Hollister, Calif.) and supplemented with 0.25 M arginine (from J.T. BAKER®), 0.2 mg/ml BSA (Jackson Immuno Research Labs, West Grove, Pa.), and 0.005% sodium azide (VWR International, Radnor, Pa.) with the pH adjusted to 7 was used to query the antibodies. Antigen (ranging from 1.23 nM to 100 nM) was typically run sequentially with association times of 2-4 minutes and dissociation times of 3-120 minutes grouped with the PROTEON™ Manager Software (v3.1.0.6 (Bio-Rad, Hercules, Calif.)) and fitted using a 1:1 Langmuir binding model. Surfaces were regenerated between analyte queries using 0.85% Phosphoric Acid.

[7] = target: T2, human PACAP27; test: SPR, Ab immobilised
Description: [The procedure below names another target; the source says it served here with some conditions changed.] as §1

[8] = target: T3, human VIP; test: SPR, Ab immobilised
Description: [The procedure below names another target; the source says it served here with some conditions changed.] as §1

[9] = target: T1, human PACAP38; test: cell-based or functional assay

Binder | EC50 [1] | IC50 [2] | IC50, 1 nM PACAP38-induced human VPAC2-R mediated cAMP increase [3] | IC50, 0.1 nM PACAP38-induced PAC1-R mediated cAMP increase [4] | IC50, 0.1 nM PACAP27-induced PAC1-R mediated cAMP increase [5] | Kd [6] | koff [6] | kon [6] | Kd [7] | koff [7] | kon [7] | Kd [8] | koff [8] | kon [8] | IC50, 5 nM PACAP38-induced human VPAC1-R mediated cAMP increase [9]
anti-PACAP antibody Ab14 (antibody, human IgG1, kappa, N297A, V domains shown, full-length rabbit/human chimeric antibody) VH: QSVEASGGRLVTPGTPLTLTCTVSGFSLSSAAMNWVRQAPGKGLEWIGFIEYSKNIVYASWAKGRFTISKVSSTTVDLKMTSPTTEDTATYFCARGGGEFFIWGQGTLVTVSS VL: AQVLTQTPSSVSAAVGGTVTINCQSSQSVYSNNRLSYYQQKPGQPPKLLIYEASSLAYGVPSRFKGSGSGTQFTLTISDLECDDAATYYCAGAYSNSIYSFGGGTEVVVKR | 0.57 nM | 17.9 nM | 0.84 nM | 0.154 nM | 0.0957 nM | ≤ 0.031 nM | ≤ 1e-05 s⁻¹ | 320000 M⁻¹ s⁻¹ | 0.074 nM | 2e-05 s⁻¹ | 270000 M⁻¹ s⁻¹ | 250 nM | 0.067 s⁻¹ | 270000 M⁻¹ s⁻¹ | 2.63 nM
anti-PACAP antibody Ab11 (antibody, human IgG1, kappa, N297A, V domains shown, full-length rabbit/human chimeric antibody) VH: QSVEESGGRLVTPGTPLTLTCTASGFSLSRYAMGWVRQAPGKGLEWIGDISTYGTTDYASWVNGRFTISRTSTTVTLKMTSLTTEDTATYFCARDYWLSLWGQGTLVTVSS VL: AAVLTQTPSPVSAAVGGTVTIKCQSSQSVYDNNALAWYQQKPGQPPKLLIYAASNLASGVPDRFSGSGSGTQFTLTISGVQCDDAATYYCLGGYDDAADNAFGGGTEVVVKR | 0.53 nM | 24.6 nM | 0.265 nM | 0.0567 nM | 0.109 nM | 0.11 nM | 3.1e-05 s⁻¹ | 270000 M⁻¹ s⁻¹ | 0.42 nM | 0.00011 s⁻¹ | 260000 M⁻¹ s⁻¹ | 230 nM | 0.047 s⁻¹ | 200000 M⁻¹ s⁻¹ | 0.541 nM
anti-PACAP antibody Ab12 (antibody, human IgG1, kappa, N297A, V domains shown, full-length rabbit/human chimeric antibody) VH: QSVEESGGRLVTPGTPLTLTCTASGFSLSSYAMGWVRQAPGKGLEWIGDISTYGTTDYASWVYGRFTISRTSTTVTLKMTSLTTEDTATYFCARDYWLSLWGQGTLVTVSS VL: AAVLTQTPSPVSAAVGGTVTIKCQSSQSVYDNNALAWYQQKPGQPPKLLIYAASTLASGVPSRFSGSGSGTEFTLTISGVQCDDAATYYCLGGYYDPADNAFGGGTEVVVKR | 0.51 nM | 22.6 nM | 0.179 nM | 0.0511 nM | 0.0604 nM | ≤ 0.032 nM | ≤ 1e-05 s⁻¹ | 310000 M⁻¹ s⁻¹ | 0.07 nM | 2.1e-05 s⁻¹ | 290000 M⁻¹ s⁻¹ | 8.2 nM | 0.0024 s⁻¹ | 290000 M⁻¹ s⁻¹ | 0.292 nM
anti-PACAP antibody Ab7 (antibody, human IgG1, kappa, N297A, V domains shown, full-length rabbit/human chimeric antibody) VH: QSVEESGGRLVTPGTPLTLTCTASGIDLSGYAMGWVRQAPGKGLEWIGDISTYGTTDYASWVNGRFTISRTSTTVTLKMTSLTTEDTATYFCARDYWLSLWGPGTLVTVSS VL: AAVLTQTPSPVSAAVGGTVTIKCQSSQSVYDNNALAWYQQKPGQPPKLLIYAASTLASGVPSRFKGSGSGTQFTLTINGVQCDDAATYYCLGGYDDPADNAFGGGTEVVVKR | 0.45 nM | 22 nM | 0.162 nM | 0.111 nM | 0.0458 nM | ≤ 0.056 nM | ≤ 1e-05 s⁻¹ | 180000 M⁻¹ s⁻¹ | 0.2 nM | 4.5e-05 s⁻¹ | 230000 M⁻¹ s⁻¹ | 34 nM | 0.0088 s⁻¹ | 260000 M⁻¹ s⁻¹ | 0.687 nM
